Test results from patent US11767353B2, “Trail compositions with reduced immunogenicity” (Theraly Fibrosis, Inc., priority 2020, dated 2023).

Tests used:
[1] = Formulation stability and freeze-thaw stability; assay type: physicochemical
Excerpt: The stability may be evaluated by measuring the ratio of soluble material to the insoluble material that can be separated by centrifugation. The intact structure of stored material can also be confirmed by IEX-HPLC (SP-NPR) and RP-HPLC (C4).

[2] = system: quiescent primary human hepatic stellate cells (HSCs); experiment: Cell cytotoxicity assay on quiescent hepatic stellate cells (off-target); assay type: cell-based; conditions: high concentrations (100 nM)
Procedure: (§1) In addition to the standard physico-chemical characterization, the leads were tested for the target potency and off-target toxicity. Initially, selective apoptotic activities of various TLY012 leads were tested in normal (off-target) and myofibroblasts (target cells) by utilizing quiescent and activated primary human hepatic stellate cells (HSCs) respectively. Briefly, quiescent and culture-activated HSCs were incubated with TLY012 leads and cell viability was determined by cell cytotoxicity assays.

[3] = Single-dose pharmacokinetics in Cynomolgus monkeys (ELISA, serum)
Excerpt: PK parameters were addressed in Cynomolgus monkeys. This was a single dose, parallel group, dose escalation study in 5 males and 5 females normal Cynomolgus monkeys ranging in age from 34 to 44 months. At the start date of the study body weights ranged from 2.9 to 3.9 kg for males and 2.9 to 3.2 kg for females. Blood samples were collected at time point indicated in Table 3 and serum samples prepared for analyzing drug levels.
A sandwich enzyme-linked immunosorbent assay (ELISA) for human TRAIL was developed to measure the concentrations of TLY012 in monkey serum. Briefly, serum samples were diluted in 0.5% normal monkey serum and incubated with anti-TRAIL capturing antibodies immobilized on ELISA plates. Test samples were analyzed at 1:200-1:168000 dilutions (depending on the predicted concentrations) to fit into the range of the standard curve (97 pg/mL-12.5 ng/mL). All data within the assay range were reported and provided for pharmacokinetic analysis
A compartment model independent pharmacokinetic analysis was conducted on dose and serum concentration-time data with Phoenix 64 WinNonlin software. The parameters addressed: maximum serum concentrations (Cmax), time (Tmax) to reach Cmax, time (Tlast) to reach the last quantifiable concentration (Clast), elimination half-life (t½). Area under the curve from zero to Clast (AUClast), the total area under the curve from zero to infinity (AUC). Total systemic clearance (CL) and steady state volume of distribution (Vss) was calculated for IV group. Clearance (CL/F) and volume of distribution (Vz/F) and bioavailability (F) was computed for the SC groups. In addition, dose-exposure relationship was evaluated by linear regression analysis.

[4] = system: activated primary human hepatic stellate cells (HSCs); experiment: Cell cytotoxicity assay on activated hepatic stellate cells (myofibroblasts); assay type: cell-based; conditions: FIG. 3
Procedure: as §1

[5] = system: orthotopic xenografts of mouse KPC cells (UN-KPC-960); experiment: Orthotopic pancreatic xenografts of mouse KPC cells in B6.129 mice; assay type: in vivo
Procedure: To generate the solid tumor, 10^7 of mouse pancreatic ductal adenocarcinoma UN-KPC-960-luc2 cells suspended in 100 μl PBS were inoculated into flank of syngeneic B6.129 mice. The KPC tumors from the donor mice were excised under sterile conditions once the tumor was grown up to […] in diameter. The donor tumors were cut into 1-1.5 mm^3 pieces using surgical blade.
For the orthotopic xenograted tumors in pancreas, a laparotomy via left flank incision was performed to expose the pancreatic head and donor tumor pieces were inserted into the pancreas of recipient B6.129 mice (n=7/group) followed by closing in two layers with 5-0 absorbable sutures. Two weeks after the tumor transplantation, mice were injected with TLY012 via intraperitoneal route (10 mg/kg, every other day) and/or anti-PD-L1 (B7-H1, anti-mouse PD-L1, 2.5 mg/kg, twice of a week) for 2 weeks. Transplanted animals were imaged once a week for 5 weeks. Bioluminescent images using IVIS were acquired 10-15 minutes after intraperitoneal administration of D-Luciferin (150 mg/kg) (GOLDBIO, St. Louis, Mo., USA).
For tumor volume studies, orthotopic xenograted tumors were generated in pancreas. A laparotomy via left flank incision was performed to expose the pancreatic head and 5×10^6 of UN-KPC-960 cells were transplanted into the pancreas of recipient B6.129 mice (n=5/group) followed by closing in two layers with 5-0 absorbable sutures. four weeks after the transplantation, mice were injected with TLY012 via intraperitoneal route (10 mg/kg, every other day) or saline for 2 weeks. Then excised tumors were studied by: a) captured image and tumor volume of ½ab^2, and b) measured collagen and α-SMA positive area after TLY012 treatment using Sirius red and anti-α-SMA staining
Paraffin sectioned KPC tumor samples were used for immunofluorescence staining (IF) stain with α-SMA and either CD4 or CD8. Tissues were deparaffinized, hydrated, and heated in citrate buffer (Thermo Fisher Scientific) by microwave for antigen retrieval. Slides were washed, treated with blocking solution (3% of normal horse serum, Vectastain ABC System, Vector Labs, Burlingame, Calif.), and primary antibodies, rabbit anti-CD4 antibody (Abcam, ab183685) or rabbit anti-CD8 antibody (Abcam, ab217344) were applied with mouse anti-α-SMA antibody. Tissues were incubated overnight at 4° C., washed and anti-rabbit IgG conjugated with Alexa fluor 488 and anti-mouse IgG conjugated with Alexa fluor 633 (Thermo Fisher Scientific) were applied and incubated at room temperature. After washing the slides, samples were mounted with Fluorescence Mounting Medium with DAPI and captured under Axiovert microscope (Carl Zeiss Microscopy, LLC. Thornwood, N.Y.).
The excised tumors were immediately fixed in 10% buffered formalin, embedded in paraffin, and cut at 4 μm thickness. The sections were then stained for Masson's Trichrome or Sirius-Red staining for determining the collagen deposition. Stained tissues were imaged under a light microscope (Nikon Eclipse E600 connected with Nikon DS-Fi2 camera, Nikon USA). Stained pancreatic tissues were randomly selected 10 photos from individual mice, and the positively stained area was quantified using Image J software (NIH, Bethesda, Md.).

[6] = system: Human Colon Carcinoma Fibroblasts HC-6231; experiment: Caspase 3/7 activity in colon cancer associated fibroblasts; assay type: cell-based; conditions: TLY012 0-1000 ng/ml for 3h, FIG. 12A
Excerpt: Human Colon Carcinoma Fibroblasts HC-6231 were obtained from Cell Biologics (Catalog Number HC-6231) and maintained in fibroblast media (Cell Biologics, Catalog Number M2267).

[7] = system: activated human primary pancreatic stellate cells (PSCs); experiment: Caspase 3/7 activity and immunoblot in activated pancreatic stellate cells; assay type: cell-based; conditions: TLY012 30 or 100 ng/ml for 3h
Procedure: Human primary pancreatic stellate cells (PSCs) and stellate cell medium (SteCM) were obtained from ScienCell Research Laboratories (Carlsbad, Calif.). PSCs were cultured on Poly-L-Lysine coated plates in SteCM medium supplemented with 2% of FBS, 1% of stellate cell growth supplement, and 1% of penicillin/streptomycin solution according to the manufacturer's instructions. Pancreatic cancer associated fibroblasts (CAF08) and maintenance media (PC00B5) were obtained from Vitro Biopharma. 100 of PSCs were culture-activated for 7 to have the confluent population of activated cells or 2×10^4 cells of CAF08 were cultured on a 96 well microplate (Corning, CLS3917) for 24h and were incubated with TLY012 (at 30 ng/ml or 100 ng/ml) for 3h. After incubation, 50 μL of Caspase 3/7 substrate/lysis buffer was added to each well and incubated for 30 min after 30 min of equilibration period to room temperature. The luminescence of each sample was measured on a plate reader (Bio-Tek Instruments Inc) with parameters of 1 min lag time and 0.5 sec/well-read time (n=3).
For immunoblot, 100 of PSCs were culture activated on a 6 well plate for 7 days or 2×10^5 of CAF08 cells were plated on 6-well plates followed by control treatment or treatment with TLY012 (at 30 ng/ml or 100 ng/ml) for 3h. The lysates from the cells were tested for the presence of Cl.PARP-1 and SMA using Western bot.

TLY012: PEGylated (5 kDa PEG-aldehyde) recombinant human TRAIL (114-281) fused to modified isoleucine zipper (miLZ) at N-terminus; SEQ ID NO:30 trimer
resistance to multiple freeze-thaw cycles ([1]; formulated at 21-22 mg/mi, biological activity and HPLC appearance): resistant to multiple freeze-thaw cycles
concentration at which formulation was stable ([1]; in the presence of physiological concentrations of salt, no detectable precipitation, same IEX-HPLC pattern): up to 25 mg/ml
effect / off-target toxicity on quiescent HSCs [2]: no effect
effect / off-target toxicity on quiescent HSCs ([2]; listed as TLY012 leads): no off-target toxicity
AUC ([3]; IV 10 mg/kg, female (ID 401)): 7780 µg·h/mL
AUCext ([3]; IV 10 mg/kg, female (ID 401)): 0.185%
Cmax ([3]; IV 10 mg/kg, female (ID 401)): 319 µg/mL
Tlast ([3]; IV 10 mg/kg, female (ID 401)): 360 h
Tmax ([3]; IV 10 mg/kg, female (ID 401)): 0.250 h
AUC ([3]; IV 10 mg/kg, male (ID 1)): 8590 µg·h/mL
AUCext ([3]; IV 10 mg/kg, male (ID 1)): 0.411%
Cmax ([3]; IV 10 mg/kg, male (ID 1)): 289 µg/mL
Tlast ([3]; IV 10 mg/kg, male (ID 1)): 360 h
Tmax ([3]; IV 10 mg/kg, male (ID 1)): 0.250 h
AUC ([3]; SC 2 mg/kg, female (ID 501)): 836 µg·h/mL
AUCext ([3]; SC 2 mg/kg, female (ID 501)): 1.45%
Cmax ([3]; SC 2 mg/kg, female (ID 501)): 12.1 µg/mL
F (absolute bioavailability) ([3]; SC 2 mg/kg, female (ID 501)): 53.7%
Tlast ([3]; SC 2 mg/kg, female (ID 501)): 264 h
Tmax ([3]; SC 2 mg/kg, female (ID 501)): 12.0 h
AUC ([3]; SC 2 mg/kg, male (ID 101)): 642 µg·h/mL
AUCext ([3]; SC 2 mg/kg, male (ID 101)): 0.779%
Cmax ([3]; SC 2 mg/kg, male (ID 101)): 10.8 µg/mL
F (absolute bioavailability) ([3]; SC 2 mg/kg, male (ID 101)): 37.4%
Tlast ([3]; SC 2 mg/kg, male (ID 101)): 264 h
Tmax ([3]; SC 2 mg/kg, male (ID 101)): 6.00 h
AUC ([3]; SC 10 mg/kg, female (ID 601)): 6190 µg·h/mL
AUCext ([3]; SC 10 mg/kg, female (ID 601)): 0.266%
Cmax ([3]; SC 10 mg/kg, female (ID 601)): 52.7 µg/mL
F (absolute bioavailability) ([3]; SC 10 mg/kg, female (ID 601)): 79.6%
Tlast ([3]; SC 10 mg/kg, female (ID 601)): 264 h
Tmax ([3]; SC 10 mg/kg, female (ID 601)): 48.0 h
AUC ([3]; SC 10 mg/kg, male (ID 201)): 6480 µg·h/mL
AUCext ([3]; SC 10 mg/kg, male (ID 201)): 0.0231%
Cmax ([3]; SC 10 mg/kg, male (ID 201)): 51.7 µg/mL
F (absolute bioavailability) ([3]; SC 10 mg/kg, male (ID 201)): 75.4%
Tlast ([3]; SC 10 mg/kg, male (ID 201)): 360 h
Tmax ([3]; SC 10 mg/kg, male (ID 201)): 24.0 h
AUC ([3]; SC 50 mg/kg, female (ID 701)): 44200 µg·h/mL
AUCext ([3]; SC 50 mg/kg, female (ID 701)): 1.28%
Cmax ([3]; SC 50 mg/kg, female (ID 701)): 296 µg/mL
F (absolute bioavailability) ([3]; SC 50 mg/kg, female (ID 701)): 114%
Tlast ([3]; SC 50 mg/kg, female (ID 701)): 360 h
Tmax ([3]; SC 50 mg/kg, female (ID 701)): 24.0 h
AUC ([3]; SC 50 mg/kg, male (ID 301)): 33400 µg·h/mL
AUCext ([3]; SC 50 mg/kg, male (ID 301)): 3.13%
Cmax ([3]; SC 50 mg/kg, male (ID 301)): 186 µg/mL
Tlast ([3]; SC 50 mg/kg, male (ID 301)): 264 h
Tmax ([3]; SC 50 mg/kg, male (ID 301)): 72.0 h
F (absolute bioavailability) ([3]; SC 50 mg/kg, male (ID 301), 50 mg/kg): 77.88%
F (absolute bioavailability) ([3]; SC 50 mg/kg, male (ID 301), listed as TYL012, 50 mg/kg): 77.8%
dose relationship of maximum serum (Cmax) concentrations ([3]; dose range 2-50 mg/kg): increased dose proportionately
IC50 [4]: 0.142 nM
Percent survival ([5]; Day 0): 100%
Bioluminescence activity (Total Counts), Mean ([5]; Day 14): 72300 Total Counts
Bioluminescence activity (Total Counts), Mean ([5]; Day 21): 233157.143 Total Counts
Bioluminescence activity (Total Counts), Mean ([5]; Day 28): 185128.571 Total Counts
Bioluminescence activity (Total Counts), Mean ([5]; Day 35): 390357.143 Total Counts
Percent survival ([5]; Day 35): 100%
tumor volume, Average ([5]; TLY012 i.p. 10 mg/kg every other day and/or anti-PD-L1 2.5 mg/kg twice a week, 2 weeks): 135.0695 mm3
levels of collagen (fibrosis), immunohistochemistry ([5]; TLY012 i.p. 10 mg/kg every other day for 2 weeks): decreased the levels of collagen
tumor volume compared to the saline-treated group ([5]; TLY012 i.p. 10 mg/kg every other day for 2 weeks, FIG. 14): reduced the tumor volume
cytotoxic T cell (CD4, CD8) infiltration to the tumor site ([5]; double immunofluorescence staining, vs saline): enhanced cytotoxic T cell infiltration to the tumor site
apoptosis by Caspase3/7 activity assay [6]: induced apoptosis
Cl.PARP-1, immunoblot [7]: detected
caspase 3/7 activity (RLU) ([7]; vs control treatment): activated caspase 3/7
